# Source: the supplement of paper PMC10126150
# ± gives the standard deviation of the averaged measurements.
# System: ATP
# Test: switch fluorescence ratio, 500 uM ATP over buffer (Cy3 cluster intensity, sum of 5 cycles each) (fold (ratio)); higher = stronger signal-on switching upon ATP binding; sequences stand for … in TCGTCGGCAGCGTCAGATGTGTATAAGAGACAGTTTTTTTTTTTTTTTTTTTTTTTTT…TC
# Settings: aptamer strand: ATP DNA aptamer (quencher-CACCTGGGGGAGTATTGCGGAGGAAGG + anchor), 100 nM annealed; ATP concentration: 500 uM
# How it was run: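 Cy3-labelled switching-strand clusters on a modified Illumina MiSeq flow-cell were annealed to 100 nM quencher-labelled ATP aptamer, imaged in selection buffer, then imaged after 15 min with 500 uM ATP at 22 °C. Five buffer/ATP cycles ran, with NaOH stripping and re-annealing between them. The fluorescence ratio is summed target-cycle over summed buffer-cycle Cy3 intensity per cluster, averaged per switch-domain sequence. Clusters outside 100-1000 RFU were excluded.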
# 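Also: ATP exposure 15 min at 22 °C before imaging.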
row,Sequence,switch fluorescence ratio
1,GAGGTGAGAC,1.06 ± 0.13
2,GAGGTGGGGC,1.05 ± 0.028
3,GAGGTGTGAG,1.03 ± 0.018
4,GAGGTGTGTT,0.996 ± 0.02
5,GAGGTTGATG,1.01 ± 0.02
6,GAGGTTGCCG,0.951 ± 0.018
7,GAGGTTGTTA,0.993 ± 0.032
8,GAGGTTTAAG,0.957 ± 0.052
9,GAGGTTTAAT,0.981 ± 0.039
10,GAGGTTTTAT,0.987 ± 0.054
11,GAGGTTTTGG,1.03 ± 0.057
12,GAGTAAGAGG,0.989 ± 0.059
13,GAGTAAGGGT,0.99 ± 0.024
14,GAGTAAGTTT,1.012 ± 0.0081
15,GAGTACACGT,0.9813 ± 0.0061
16,GAGTACGGGA,1.09 ± 0.059
17,GAGTAGGAAG,0.961 ± 0.05
18,GAGTAGGCGC,0.955 ± 0.032
19,GAGTAGTATT,1 ± 0.02
20,GAGTATTTAG,0.9801 ± 0.0093
21,GAGTATTTTG,0.953 ± 0.026
22,GAGTCAACGG,1.027 ± 0.0071
23,GAGTCACGGA,1.01 ± 0.046
24,GAGTCGGGTA,1.028 ± 0.0097
25,GAGTCTAAGT,0.996 ± 0.026

row,Sequence,switch fluorescence ratio
1,GAGTCTGGGA,1.032 ± 0.0051
2,GAGTCTGTGC,1.02 ± 0.043
3,GAGTCTTATA,1.01 ± 0.031
4,GAGTCTTTTA,0.959 ± 0.013
5,GAGTGAAGGA,1.03 ± 0.065
6,GAGTGACCGA,1.01 ± 0.02
7,GAGTGACTTG,1.017 ± 0.0089
8,GAGTGAGTCG,0.981 ± 0.022
9,GAGTGCTGGG,1.01 ± 0.011
10,GAGTGCTGTT,1.024 ± 0.01
11,GAGTGGAAGC,0.964 ± 0.051
12,GAGTGGAATA,1.002 ± 0.0083
13,GAGTGGGATG,0.9633 ± 0.0035
14,GAGTGGGGGG,0.976 ± 0.043
15,GAGTGGGTTA,1.03 ± 0.012
16,GAGTGGGTTT,0.999 ± 0.03
17,GAGTGTACGT,1.01 ± 0.052
18,GAGTTAAGGG,1.007 ± 0.0018
19,GAGTTAATGT,1.01 ± 0.043
20,GAGTTAATTG,1.01 ± 0.043
21,GAGTTATATT,0.985 ± 0.025
22,GAGTTATGGT,1.02 ± 0.044
23,GAGTTATTTA,0.982 ± 0.027
24,GAGTTCAGGA,1 ± 0.021
25,GAGTTCCCGA,0.977 ± 0.048

row,Sequence,switch fluorescence ratio
1,GAGTTCCGGG,1.01 ± 0.024
2,GAGTTCGCGG,1.034 ± 0.01
3,GAGTTCGGGG,0.987 ± 0.014
4,GAGTTGAGAT,0.9871 ± 0.007
5,GAGTTGCAGG,1.01 ± 0.032
6,GAGTTGGGAA,1.04 ± 0.077
7,GAGTTGGGGT,0.986 ± 0.018
8,GAGTTGTCTT,0.9538 ± 0.0062
9,GAGTTTATAT,1.01 ± 0.017
10,GAGTTTTGAA,0.997 ± 0.018
11,GATAAACAAT,1.19 ± 0.28
12,GATAAATCGG,0.981 ± 0.024
13,GATAACCTTT,1.073 ± 0.0078
14,GATAAGAGTG,1.02 ± 0.052
15,GATAAGGGTG,1.07 ± 0.0053
16,GATAAGTCGT,0.991 ± 0.032
17,GATAATAGGG,0.99 ± 0.045
18,GATACAGTGC,1.059 ± 0.002
19,GATACGTGTT,0.998 ± 0.053
20,GATACTCGTG,0.97 ± 0.032
21,GATACTGCGC,1.16 ± 0.087
22,GATACTGGGG,1.01 ± 0.028
23,GATAGAAATT,1.01 ± 0.031
24,GATAGAATGA,1.014 ± 0.0096
25,GATAGAGAGG,1 ± 0.044

row,Sequence,switch fluorescence ratio
1,GATAGCCGAT,1.031 ± 0.0015
2,GATAGGAAGG,0.964 ± 0.052
3,GATAGGCAGG,0.998 ± 0.019
4,GATAGGCGGG,0.9795 ± 0.0094
5,GATAGGGGAT,0.986 ± 0.031
6,GATAGTAAGG,0.9795 ± 0.0075
7,GATAGTATGC,0.961 ± 0.059
8,GATAGTATGT,0.981 ± 0.023
9,GATAGTGAAA,1.02 ± 0.035
10,GATATACAGC,1.02 ± 0.017
11,GATATAGGGG,1 ± 0.034
12,GATATCAGGA,0.989 ± 0.027
13,GATATCATCT,0.99 ± 0.042
14,GATATCCGAG,1.05 ± 0.011
15,GATATGCGTT,0.985 ± 0.031
16,GATATGGGCA,1.04 ± 0.037
17,GATATGTGGG,0.986 ± 0.031
18,GATATTGAAG,0.974 ± 0.031
19,GATATTGGGG,0.981 ± 0.033
20,GATATTGTCA,1.04 ± 0.069
21,GATATTGTTT,0.988 ± 0.019
22,GATATTTGA,0.99448 ± 0.00073
23,GATATTTTCG,1.01 ± 0.035
24,GATATTTTGG,0.982 ± 0.025
25,GATCAAGGGG,0.9939 ± 0.0078

row,Sequence,switch fluorescence ratio
1,GATCCAGGAG,1.11 ± 0.047
2,GATCCGAGGG,0.974 ± 0.018
3,GATCCGGCTT,1.04 ± 0.035
4,GATCCGGGC,1.05 ± 0.087
5,GATCCTAACG,1.04 ± 0.048
6,GATCCTTTAT,0.979 ± 0.02
7,GATCGATTTG,0.998 ± 0.023
8,GATCGCTTGG,1.04 ± 0.036
9,GATCGGAATA,1.87 ± 0.091
10,GATCGGATTA,0.999 ± 0.024
11,GATCGGCTTG,0.984 ± 0.013
12,GATCGGGGCA,0.97679 ± 0.00094
13,GATCGGGGGC,1.06 ± 0.14
14,GATCGGTACG,1 ± 0.011
15,GATCGTACAG,1.04 ± 0.018
16,GATCTACAGC,1.02 ± 0.024
17,GATCTACGGC,1.07 ± 0.024
18,GATCTGTGGA,0.95 ± 0.052
19,GATCTTAGGT,0.996 ± 0.041
20,GATGAAATGG,1.02 ± 0.013
21,GATGAACGTC,1.11 ± 0.19
22,GATGAAGCGA,1.19 ± 0.02
23,GATGAAGGGA,0.979 ± 0.013
24,GATGAATGGG,0.996 ± 0.014
25,GATGACGAAT,1.023 ± 0.0047

row,Sequence,switch fluorescence ratio
1,GATGACGTCC,1.04 ± 0.069
2,GATGACTTGT,0.972 ± 0.011
3,GATGAGAGGT,0.999 ± 0.015
4,GATGAGGAAG,1.01 ± 0.06
5,GATGAGGGTA,0.976 ± 0.034
6,GATGAGGGTG,1.06 ± 0.015
7,GATGAGTTG,1.01 ± 0.012
8,GATGATAGCG,0.999 ± 0.025
9,GATGATGGGC,0.996 ± 0.035
10,GATGCACCGA,1.06 ± 0.036
11,GATGCATGGC,1.12 ± 0.035
12,GATGCTACTG,1.04 ± 0.016
13,GATGCTGTGC,1.0328 ± 0.00033
14,GATGCTTCTT,0.985 ± 0.019
15,GATGCTTGTG,0.978 ± 0.011
16,GATGGAAAGG,0.998 ± 0.029
17,GATGGAAGGG,0.974 ± 0.023
18,GATGGAGGTG,0.997 ± 0.011
19,GATGGATAGG,0.9804 ± 0.0043
20,GATGGATGGG,1.019 ± 0.0069
21,GATGGATTAG,0.982 ± 0.015
22,GATGGCGGAG,1.03 ± 0.042
23,GATGGCGTGG,0.964 ± 0.038
24,GATGGCTACG,1.01 ± 0.024
25,GATGGGACAA,1.008 ± 0.0027

row,Sequence,switch fluorescence ratio
1,GATGGGGCTG,1.02 ± 0.062
2,GATGGGGGAT,1.01 ± 0.028
3,GATGGGGGGG,1 ± 0.028
4,GATGGGTTTT,0.997 ± 0.062
5,GATGGTAGTT,1.012 ± 0.0024
6,GATGGTCGTT,1.011 ± 0.0079
7,GATGGTGGGG,0.977 ± 0.035
8,GATGGTGGTT,1.02 ± 0.044
9,GATGGTTTCC,1.02 ± 0.0017
10,GATGGTTTGT,0.988 ± 0.039
11,GATGTAACTT,1.012 ± 0.0061
12,GATGTACCCC,1.114 ± 0.0023
13,GATGTAGCTT,1.029 ± 0.0033
14,GATGTAGTAT,0.982 ± 0.011
15,GATGTAGTGG,1.029 ± 0.0055
16,GATGTCAGGG,1.05 ± 0.021
17,GATGTCATTT,0.987 ± 0.024
18,GATGTCCCCA,0.959 ± 0.013
19,GATGTCTAGC,0.9894 ± 0.0065
20,GATGTGGTAA,1.01 ± 0.012
21,GATGTGGTGA,0.9929 ± 0.0061
22,GATGTGTTGG,0.9595 ± 0.0048
23,GATGTTAAGA,0.998 ± 0.046
24,GATGTTAGTA,0.973 ± 0.018
25,GATGTTGAAT,0.998 ± 0.021

row,Sequence,switch fluorescence ratio
1,GATGTTGATG,0.976 ± 0.014
2,GATTAAGAGC,0.999 ± 0.044
3,GATTACTACC,1.21 ± 0.04
4,GATTAGGCGA,1.023 ± 0.0064
5,GATTAGTGTG,0.995 ± 0.05
6,GATTATAAGA,0.989 ± 0.033
7,GATTATAGAT,1 ± 0.015
8,GATTATCGTT,1.03 ± 0.027
9,GATTATGCGC,1.03 ± 0.037
10,GATTATGCTC,1.01 ± 0.015
11,GATTATGCTG,1.17 ± 0.06
12,GATTATGGCA,0.9752 ± 0.0066
13,GATTATTGCT,0.988 ± 0.037
14,GATTCAAAGG,0.9911 ± 0.004
15,GATTCACTAA,0.989 ± 0.054
16,GATTCAGACA,0.963 ± 0.015
17,GATTCAGCGC,0.99 ± 0.03
18,GATTCCATAT,1 ± 0.03
19,GATTCGCGGC,1.16 ± 0.02
20,GATTCGCTAA,1.12 ± 0.13
21,GATTCTGGTT,0.94 ± 0.029
22,GATTCTTGAG,1.01 ± 0.032
23,GATTGAAAGA,0.986 ± 0.026
24,GATTGAAAGC,0.962 ± 0.045
25,GATTGAAGGG,0.979 ± 0.032
